According to publication PMC4814874:

How the values were obtained:
[1] = molecular target: MART1 peptide on HLA-A*02:01 (human); test: structural avidity; Jurkat 76 without CD8; graded A2/MART1 multimer; full-length, on cells
[2] = molecular target: MART1 peptide on HLA-A*02:01 (human); test: IL-2 ELISPOT; Jurkat 76 without CD8; T2 + graded peptide; full-length, on cells
[3] = molecular target: MART1 peptide on HLA-A*02:01 (human); test: structural avidity; Jurkat 76/CD8; graded A2/MART1 multimer; full-length, on cells
[4] = molecular target: MART1 peptide on HLA-A*02:01 (human); test: IL-2 ELISPOT; Jurkat 76/CD8; T2 + graded peptide; full-length, on cells

- EC50 of multimer [1]: 0.022 µg/mL
- EC50 of peptide [2]: 0.363 µg/mL
- EC50 of multimer [3]: 0.013 µg/mL
- EC50 of peptide [4]: 0.102 µg/mL
Substance: DMF5
